Experiments:
Assay type in all cases: biochemical
[1] = Test for malate semialdehyde reductase activity; conditions: for Activity on malate semialdehyde (cofactor NADPH): 0.24 mM NADPH
Method: Test for Malate Semialdehyde Reductase Activity: Reaction: (L)-Malate semialdehyde+NAD(P)H→(L)-2,4-dihydroxybutyric acid+NAD(P)
The assay mixture contained 200 mM Hepes (pH 7.5), 50 mM KCl, 5 mM MgCl2, 0.24 mM NADH or NADPH, and appropriate amounts of purified enzyme. Reactions were started by adding 10 mM (L)-malate semialdehyde (malate semialdehyde was prepared freshly for each test, see Example 4). Enzymatic assays were carried out at 30° C. in 96-well flat bottomed microtiter plates in a final volume of 250 μL. The reactions were followed by the characteristic absorption of NAD(P)H at 340 nm in a microplate reader (BioRad 680XR).

[2] = Aspartate semialdehyde dehydrogenase activity, reverse biosynthetic direction, NADP reduction; conditions: His-tagged enzyme, pH 9, 30° C.
Method: (§1) Enzymatic assay: Aspartate or malate semialdehyde dehydrogenase activities were assayed in the reverse biosynthetic direction by following the reduction of NADP during the oxidation of aspartate or malate semialdehyde to 4-phospho-(L)-aspartate or 4-phospho-(L)-malate, respectively (Roberts et al., 2003). (L)-aspartate semialdehyde (or (L)-malate semialdehyde)+NADP+Pi→4-phospho-(L)-aspartate (or 4-phospho-(L)-malate)+NADPH
(§2) The assay mixture contained 200 mM Hepes (pH 9), 50 mM K2HPO4, 0.25 mM NADP. Reactions were started by adding (L)-aspartate semialdehyde or (L)-malate semialdehyde. (L)-Aspartate semialdehyde was added in the form of L-aspartic acid β-semialdehyde hydrate trifluoroacetate (maintained at pH3 to prevent degradation) which is a suitable substrate for enzymatic tests of homoserine dehydrogenase and aspartate semialdehyde dehysrogenase (Roberts et al., 2003). Unstable malate semialdehyde was produced freshly prior to the enzymatic tests by the deprotection of the stable malate semialdehyde derivative 2-[(4S)-2,2-dimethyl-5-oxo-1,3-dioxolan-4-yl]acetaldehyde (DMODA). […]
(§3) Enzymatic assays were carried out in 96-well flat bottomed microtiter plates in a final volume of 250 μL at 30° C. The reactions were followed by the characteristic absorption of NADPH at 340 nm in a microplate reader (BioRad 680XR).

[3] = Malate semialdehyde dehydrogenase activity, reverse biosynthetic direction, NADP reduction
Method: as §1, §2, §3

[4] = Aspartate kinase activity, ADP production coupled to NADH oxidation; conditions: purified enzyme, 30° C., pH 7.5
Method: Enzymatic assay: Aspartate or malate kinase activities were assayed by coupling ADP production in the kinase reactions to NADH oxidation in the presence of phosphoenolpyruvate, pyruvate kinase, and lactate dehydrogenase.
Aspartate (or Malate) Kinase aspartate (or malate)+ATP→4-phospho-(L)-aspartate (or 4-phospho-(L)-malate)+ADP
Pyruvate Kinase ADP+phosphoenolpyruvate→ATP+pyruvate
Lactate Dehydrogenase pyruvate+NADH→NAD^++lactate
The assay mixture contained 50 mM Hepes (pH 7.5), 50 mM KCl, 5 mM MgCl2, 0.24 mM NADH, 0.96 mM ATP, 0.96 mM PEP, 9 μg/mL of lactate dehydrogenase (Sigma, L2500), 12.4 μg/mL pyruvate kinase (Sigma, P1506), and appropriate amounts of purified aspartate (malate) kinase. Reactions were started by adding 50 mM (L)-aspartate or (L)-malate. Enzymatic assays were carried out at 30° C. in 96-well flat bottomed microtiter plates in a final volume of 250 μL. The reactions were followed by the characteristic absorption of NADH at 340 nm in a microplate reader (BioRad 680XR).
Maximum activities for LysC and Hom3 on aspartate were 4.5 μmol/(min*mgprot) and 1.6 μmol/(min*mgprot), respectively. The Km value for aspartate was estimated with the method of Eadie and Hofstee by measuring initial reaction rates (v) at different substrate concentrations (c) and by extracting the slope of the v versus v/c plot. […]

[5] = Hydroxamate assay to verify phosphorylation of the substrate; conditions: 10 mM malate, 10 mM ATP, 30 min
Method: Hydroxamate assay: To verify phosphorylation of the substrate, i.e. formation of an acylphosphate anhydride, by wild-type or mutated aspartate kinases, the product of the kinase reaction was incubated with hydroxylamine to form the corresponding aspartate or malate hydroxamate derivative. The assay mixture contained 120 mM Hepes (pH 8), 200 mM KCl, 10 mM ATP, 200 mM hydroxylamine, 10 mM aspartate or malate, and appropriate amount of purified protein. The reaction was stopped after 30 min by addition of an equal volume of 1.7% (w/v) FeCl3 in 1 M hydrochloric acid. Formation of the hydroxamate-iron complex was verified by measuring its characteristic absorbance at 540 nm in a microtiter plate reader. Assay mixtures containing all components except for ATP were used as a blank.

[6] = 10 mM (L)-malate semialdehyde, 30° C.

B1: H39R N43H (SEQ ID NO: 81): M. sedula succinic semialdehyde reductase double mutant H39R N43H (protein, listed as Metallosphaera sedula)
chain: MKAAVLHTYKEPLSIEDVNISQPKAGEVKIKVKATGLCRSDVHVFEGKTPVPPPVVAGHEISGIVEEVGPGVTRVKPGDRVISAFIHPCGKCGNCVAGKENLCETFSQVRLKGVMPDGTSRLSKDGKEIRTFLGGGFAEYAIVGENALTRVPEDMDLEKVAVLGCAGLTGYGAISSSKIEPGDTVAVIGVGGVGLSTIQLLRASGAGRIIAVGTKKWKLDRAMELGATDVVNSKEIDPVKAIKEITGGGPQVVIEAGGNEDTIHMALDSVRIGGKVVLVGLPPATAMIPIRVASIVRGGIEVVGNYGGRPRVDMPKLLELVRQGRYDPSRLVTGRFRLEEINEAVKMLEEGEAIRSLIIP
[1]
  Affinity for malate semialdehyde compared to the wild type enzyme: improved affinity

B2: Ms-SSR: succinic semialdehyde reductase from Metallosphaera sedula, wild type (protein, listed as Metallosphaera sedula)
chain: MKAAVLHTYKEPLSIEDVNISQPKAGEVKIKVKATGLCHSDVNVFEGKTPVPPPVVAGHEISGIVEEVGPGVTRVKPGDRVISAFIHPCGKCGNCVAGKENLCETFSQVRLKGVMPDGTSRLSKDGKEIRTFLGGGFAEYAIVGENALTRVPEDMDLEKVAVLGCAGLTGYGAISSSKIEPGDTVAVIGVGGVGLSTIQLLRASGAGRIIAVGTKKWKLDRAMELGATDVVNSKEIDPVKAIKEITGGGPQVVIEAGGNEDTIHMALDSVRIGGKVVLVGLPPATAMIPIRVASIVRGGIEVVGNYGGRPRVDMPKLLELVRQGRYDPSRLVTGRFRLEEINEAVKMLEEGEAIRSLIIP
[1]; 10 mM (L)-malate semialdehyde, 0.24 mM NADH, 30° C.
  Activity on malate semialdehyde (cofactor NADH): 4.9 μmol/(min*mg_prot)
[1]; [6]
  Activity on malate semialdehyde (cofactor NADPH): 4.9 μmol/(min*mg_prot)

B3: YPR1: methylbutyraldehyde reductase from Saccharomyces cerevisiae (protein, listed as Saccharomyces cerevisiae)
chain: MPATLKNSSATLKLNTGASIPVLGFGTWRSVDNNGYHSVIAALKAGYRHIDAAAIYLNEEEVGRAIKDSGVPREEIFITTKLWGTEQRDPEAALNKSLKRLGLDYVDLYLMHWPVPLKTDRVTDGNVLCIPTLEDGTVDIDTKEWNFIKTWELMQELPKTGKTKAVGVSNFSINNIKELLESPNNKVVPATNQIEIHPLLPQDELIAFCKEKGIVVEAYSPFGSANAPLLKEQAIIDMAKKHGVEPAQLIISWSIQRGYVVLAKSVNPERIVSNFKIFTLPEDDFKTISNLSKVHGTKRVVDMKWGSFPIFQ
[1]; [6]
  Activity on malate semialdehyde (cofactor NADPH): 0.19 μmol/(min*mg_prot)

B4: Asd: wild-type aspartate semialdehyde dehydrogenase of E. coli, His-tagged (protein, listed as Escherichia coli)
chain: MKNVGFIGWRGMVGSVLMQRMVEERDFDAIRPVFFSTSQLGQAAPSFGGTTGTLQDAFDLEALKALDIIVTCQGGDYTNEIYPKLRESGWQGYWIDAASSLRMKDDAIIILDPVNQDVITDGLNNGIRTFVGGNCTVSLMLMSLGGLFANDLVDWVSVATYQAASGGGARHMRELLTQMGHLYGHVADELATPSSAILDIERKVTTLTRSGELPVDNFGVPLAGSLIPWIDKQLDNGQSREEWKGQAETNKILNTSSVIPVDGLCVRVGALRCHSQAFTIKLKKDVSIPTVEELLAAHNPWAKVVPNDREITMRELTPAAVTGTLTTPVGRLRKLNMGPEFLSAFTVGDQLLWGAAEPLRRMLRQLA
modifications: His tag
notes: wild-type aspartate semialdehyde dehydrogenase of E. coli, His-tagged
[2]
  Maximum specific activity, oxidation of (L)-aspartate semialdehyde to 4-phospho-(L)-aspartate: 160 μmol/(min*mgprot)
[3]; His-tagged enzyme, pH 9, 30° C.
  Activity on (L)-malate semialdehyde: 0.01 μmol/(min*mgprot)

B5: Asd E241Q T136N: double mutant of E. coli aspartate semialdehyde dehydrogenase Asd (protein, listed as Escherichia coli)
chain: MKNVGFIGWRGMVGSVLMQRMVEERDFDAIRPVFFSTSQLGQAAPSFGGTTGTLQDAFDLEALKALDIIVTCQGGDYTNEIYPKLRESGWQGYWIDAASSLRMKDDAIIILDPVNQDVITDGLNNGIRTFVGGNCNVSLMLMSLGGLFANDLVDWVSVATYQAASGGGARHMRELLTQMGHLYGHVADELATPSSAILDIERKVTTLTRSGELPVDNFGVPLAGSLIPWIDKQLDNGQSRQEWKGQAETNKILNTSSVIPVDGLCVRVGALRCHSQAFTIKLKKDVSIPTVEELLAAHNPWAKVVPNDREITMRELTPAAVTGTLTTPVGRLRKLNMGPEFLSAFTVGDQLLWGAAEPLRRMLRQLA
[3]; substrate not given, Example 5 tests malate semialdehyde dehydrogenase activity
  Maximum specific activity: 0.25 μmol/(min*mgprot)

B6: Hom3: wild-type aspartate kinase of Saccharomyces cerevisiae encoded by HOM3 (protein, listed as Saccharomyces cerevisiae)
chain: MPMDFQPTSSHSNWVVQKFGGTSVGKFPVQIVDDIVKHYSKPDGPNNNVAVVCSARSSYTKAEGTTSRLLKCCDLASQESEFQDIIEVIRQDHIDNADRFILNPALQAKLVDDTNKELELVKKYLNASKVLGEVSSRTVDLVMSCGEKLSCLFMTALCNDRGCKAKYVDLSHIVPSDFSASALDNSFYTFLVQALKEKLAPFVSAKERIVPVFTGFFGLVPTGLLNGVGRGYTDLCAALIAVAVNADELQVWKEVDGIFTADPRKVPEARLLDSVTPEEASELTYYGSEVIHPFTMEQVIRAKIPIRIKNVQNPLGNGTIIYPDNVAKKGESTPPHPPENLSSSFYEKRKRGATAITTKNDIFVINIHSNKKTLSHGFLAQIFTILDKYKLVVDLISTSEVHVSMALPIPDADSLKSLRQAEEKLRILGSVDITKKLSIVSLVGKHMKQYIGIAGTMFTTLAEEGINIEMISQGANEINISCVINESDSIKALQCIHAKLLSERTNTSNQFEHAIDERLEQLKRLGI
[4]
  Maximum activity on aspartate: 1.6 μmol/(min*mgprot)
[5]
  Phosphorylation of malate as verified by the hydroxamate assay: not able to phosphorylate malate

B7: LysC: wild-type aspartate kinase III of E. coli encoded by the lysC gene (protein, listed as Escherichia coli)
chain: MSEIVVSKFGGTSVADFDAMNRSADIVLSDANVRLVVLSASAGITNLLVALAEGLEPGERFEKLDAIRNIQFAILERLRYPNVIREEIERLLENITVLAEAAALATSPALTDELVSHGELMSTLLFVEILRERDVQAQWFDVRKVMRTNDRFGRAEPDIAALAELAALQLLPRLNEGLVITQGFIGSENKGRTTTLGRGGSDYTAALLAEALHASRVDIWTDVPGIYTTDPRVVSAAKRIDEIAFAEAAEMATFGAKVLHPATLLPAVRSDIPVFVGSSKDPRAGGTLVCNKTENPPLFRALALRRNQTLLTLHSLNMLHSRGFLAEVFGILARHNISVDLITTSEVSVALTLDTTGSTSTGDTLLTQSLLMELSALCRVEVEEGLALVALIGNDLSKACGVGKEVFGVLEPFNIRMICYGASSHNLCFLVPGEDAEQVVQKLHSNLFE
[4]
  Maximum activity on aspartate: 4.5 μmol/(min*mgprot)
[5]
  Phosphorylation of malate as verified by the hydroxamate assay: not able to phosphorylate malate

Source: US10358663B2, “Method of production of 2,4-dihydroxybutyric acid” (ADISSEO FRANCE S.A.S., priority 2010, dated 2019)
